Source: patent publication US20020165132A1 (published 2002)
One block for each binder: values may come before it. Positions of bridges follow the written chain, without caps; N, C: chain ends. Non-standard residues stand in square brackets, D forms with d. No end group written: not given here. AlaL = alanine half of a lanthionine (monosulfide) bridge

What was measured:
[1] = molecular target: T1, µ-receptor (guinea pig ileum preparation) (guinea pig); assay: cell-based or functional assay
[2] = molecular target: SSTR2 Receptor (cloned somatostatin receptor); assay: inhibition of radioligand binding to cloned SSTR2
[3] = molecular target: T1, µ-receptor (guinea pig ileum …); assay: cell-based or functional assay; remark: listed apart in the source

Chain of SSTR2 Receptor (cloned somatostatin receptor) (P30875 whole entry): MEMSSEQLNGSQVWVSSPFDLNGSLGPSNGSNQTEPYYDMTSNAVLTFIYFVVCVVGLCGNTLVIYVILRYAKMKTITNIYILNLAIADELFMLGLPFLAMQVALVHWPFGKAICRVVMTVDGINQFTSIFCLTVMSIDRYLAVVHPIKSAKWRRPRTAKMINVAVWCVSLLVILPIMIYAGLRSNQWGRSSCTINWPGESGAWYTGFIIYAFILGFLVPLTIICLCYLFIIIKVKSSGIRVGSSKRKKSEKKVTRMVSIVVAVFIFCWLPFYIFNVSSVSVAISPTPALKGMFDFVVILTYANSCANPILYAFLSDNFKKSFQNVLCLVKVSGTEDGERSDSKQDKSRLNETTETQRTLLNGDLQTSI

GPI IC50 [1]: 0.45 nM
B1: Tyr-c[D-AlaL-Gly-Phe-L-AlaL]-OH (peptide)
peptide: Y[dAlaL]GF[AlaL]-OH
modifications: bridge 2-5; not fully specified (bridges); printed as Tyr-c[D-AlaL-Gly-Phe-L-AlaL]-OH

IC50 [2]: 0.3 nM
B2: c[AlaL3, AlaL14]-Somatostatin-14 (peptide)
chain: AG[AlaL]KNFFWKTFTS[AlaL]
modifications: bridge 3-14; not fully specified (bridges); printed as c[AlaL3, AlaL14]-Somatostatin-14

bioactivity at the GPI relative to [Leu^5]-enkephalin [3]: 400 fold | GPI IC50 [1]: 0.62 nM
B3: Tyr-c[D-AlaL-Gly-Phe-L-AlaL]-NH2 (peptide)
peptide: Y[dAlaL]GF[AlaL]-NH2
modifications: bridge 2-5; not fully specified (bridges); printed as Tyr-c[D-AlaL-Gly-Phe-L-AlaL]-NH2
